Assay [1] concerns the target T1, Chemotaxis Inhibitory Protein of Staphylococcus aureus (CHIPS), wildtype, amino acids 1-121 (Staphylococcus aureus, UniProt A6QIG7 29-149). In words: competition: CHIPS given iv (0.1 mg/kg) against the binding of FITC labelled anti-CD88 mAb to C5aR on gated blood neutrophils, flow cytometry [B) (cont.]. Background: A flow cytometer gives signals particle by particle.

Assay [2] concerns the target T1, Chemotaxis Inhibitory Protein of …. Kind of assay: competition: CHIPS given iv (0.1 mg/kg) against the binding of FITC-fMLP to FPR on gated blood neutrophils, flow cytometry [A) (cont.].

This note sets out measurements from patent US20100298539A1 (ALLIGATOR BIOSCIENCE, published 2010).

B1: human C5a receptor (C5aR) (receptor)
chain: MDSFNYTTPDYGHYDDKDTLDLNTPVDKTSNTLRVPDILALVIFAVVFLVGVLGNALVVWVTAFEAKRTINAIWFLNLAVADFLSCLALPILFTSIVQHHHWPFGGAACSILPSLILLNMYASILLLATISADRFLLVFKPIWCQNFRGAGLAWIACAVAWGLALLLTIPSFLYRVVREEYFPPKVLCGVDYSHDKRRERAVAIVRLVLGFLWPLLTLTICYTFILLRTWSRRATRSTKTLKVVVAVVASFFIFWLPYQVTGIMMSFLEPSSPTFLLLKKLDSLCVSFAYINCCINPIIYVVAGQGFQGRLRKSLPSLLRNVLTEESVVRESKSFTRSTVDTMAQKTQAV
notes: whole, on cells; also called CD88; U937/C5aR cells
As for B1, in assay [1], the binding result is “binds”.

B2: human formylated peptide receptor (FPR) (receptor)
chain: METNSSLPTNISGGTPAVSAGYLFLDIITYLVFAVTFVLGVLGNGLVIWVAGFRMTHTVTTISYLNLAVADFCFTSTLPFFMVRKAMGGHWPFGWFLCKFVFTIVDINLFGSVFLIALIALDRCVCVLHPVWTQNHRTVSLAKKVIIGPWVMALLLTLPVIIRVTTVPGKTGTVACTFNFSPWTNDPKERINVAVAMLTVRGIIRFIIGFSAPMSIVAVSYGLIATKIHKQGLIKSSRPLRVLSFVAAAFFLCWSPYQVVALIATVRIRELLQGMYKEIGIAVDVTSALAFFNSCLNPMLYVFMGQDFRERLIHALPASLERALTEDSTQTSDTATNSTLPSAEVELQAK
notes: whole, on cells; also called formyl-peptide-receptor
In the case of B2, the binding result in assay [2] is given as “binds”.
